Measurements as given in article PMC3660561, “Crystal Structure of DmdD, a Crotonase Superfamily Enzyme That Catalyzes the Hydration and Hydrolysis of Methylthioacryloyl-CoA” (PLoS ONE, 2013).

Key:
[1] = substrate: CS/C=C/C(=O)SCCNC(=O)CCNC(=O)[C@H](O)C(C)(C)COP(=O)(O)OP(=O)(O)OC[C@H]1O[C@@H](n2cnc3c(N)ncnc32)[C@H](O)[C@@H]1OP(=O)(O)O; assay: MeSH release by headspace gas chromatography; assay type: biochemical, Ruegeria pomeroyi; conditions: MeSH release (equivalent to hydration), 100 mM HEPES pH 7.4
Text: MeSH release by headspace gas chromatography on DmdD

purified protein [2] = substrate: C/C=C/C(=O)SCCNC(=O)CCNC(=O)[C@H](O)C(C)(C)COP(=O)(O)OP(=O)(O)OC[C@H]1O[C@@H](n2cnc3c(N)ncnc32)[C@H](O)[C@@H]1OP(=O)(O)O; assay: purified protein; assay type: biochemical, Ruegeria pomeroyi; conditions: hydration, 100 mM HEPES pH 7.4
purified protein [3] = substrate: CSCCC(=O)SCCNC(=O)CCNC(=O)[C@H](O)C(C)(C)COP(=O)(O)OP(=O)(O)OC[C@H]1O[C@@H](n2cnc3c(N)ncnc32)[C@H](O)[C@@H]1OP(=O)(O)O; assay: purified protein; assay type: biochemical, Ruegeria pomeroyi; conditions: CoA ester hydrolysis, 100 mM HEPES pH 7.4
purified protein [4] = substrate: CC(O)CC(=O)SCCNC(=O)CCNC(=O)[C@H](O)C(C)(C)COP(=O)(O)OP(=O)(O)OC[C@H]1O[C@@H](n2cnc3c(N)ncnc32)[C@H](O)[C@@H]1OP(=O)(O)O; assay: purified protein; assay type: biochemical, Ruegeria pomeroyi; conditions: CoA ester hydrolysis, 100 mM HEPES pH 7.4
[5] = target: the molecule itself; assay: crystal structure; wild-type DmdD free enzyme, 1.5 Å; space group P2(1)3, two monomers in the asymmetric unit, hexamer generated by the crystallographic 3-fold axis; crystals from 100 mM Tris pH 8.5, 25% PEG 3350, 200 mM NaCl, 20°C
[6] = target: the molecule itself; assay: crystal structure; E121A mutant crystals soaked 48 h with 10 mM MTA-CoA or MMPA-CoA, 1.8 Å; space group P2(1)3, two monomers in the asymmetric unit

B1: Ruegeria pomeroyi DmdD, wild type (enzyme)
chain: MTQDVTSGYSNLDLDLRDNGVCVVTLNRPDKRNALDVATIEELVTFFSTAHRKGVRAVVLTGAGDHFCAGLDLVEHWKADRSADDFMHVCLRWHEAFNKMEYGGVPIIAALRGAVVGGGLELASAAHLRVMDQSTYFALPEGQRGIFTGGGATIRVSDMIGKYRMIDMILTGRVYQGQEAADLGLAQYITEGSSFDKAMELADKIASNLPLTNFAICSAISHMQNMSGLDAAYAEAFVGGIVNTQPAARERLEAFANKTAARVRPNS
notes: DmdD (methylthioacryloyl-CoA hydratase) of Ruegeria pomeroyi, sub-cloned into pET26b; Hexamer (dimer of trimers); The C-terminal His-tag was not cleaved before crystallization; also called wild-type DmdD; free enzyme; not shown: His6, C-terminal, kept
- Km [1]: 9.4 ± 2.1 µM
- kcat [1]: 47 ± 3 s⁻¹
- Km (purified protein [2]): 19.0 ± 3.1 µM
- kcat (purified protein [2]): 42 ± 3 s⁻¹
- Km (purified protein [3]): 69.0 ± 16.4 µM
- kcat (purified protein [3]): 0.9 ± 0.1 s⁻¹
- Km (purified protein [4]): 119 ± 20 µM
- kcat (purified protein [4]): 13.2 ± 1.6 s⁻¹
- stoichiometry N [5]: 6

B2: DmdD (Ruegeria pomeroyi DSS-3; E141A) (protein)
chain: MTQDVTSGYSNLDLDLRDNGVCVVTLNRPDKRNALDVATIEELVTFFSTAHRKGVRAVVLTGAGDHFCAGLDLVEHWKADRSADDFMHVCLRWHEAFNKMEYGGVPIIAALRGAVVGGGLELASAAHLRVMDQSTYFALPAGQRGIFTGGGATIRVSDMIGKYRMIDMILTGRVYQGQEAADLGLAQYITEGSSFDKAMELADKIASNLPLTNFAICSAISHMQNMSGLDAAYAEAFVGGIVNTQPAARERLEAFANKTAARVRPNS
notes: pET26b, C-terminal hexahistidine tag (not cleaved before crystallization), expressed in E. coli BL21(DE3) Star; homohexamer (dimer of trimers)
- Km [1]: 63.3 ± 12.0 µM
- kcat [1]: 0.0036 ± 0.0004 s⁻¹

B3: Ruegeria pomeroyi DmdD E121A mutant (enzyme)
chain: MTQDVTSGYSNLDLDLRDNGVCVVTLNRPDKRNALDVATIEELVTFFSTAHRKGVRAVVLTGAGDHFCAGLDLVEHWKADRSADDFMHVCLRWHEAFNKMEYGGVPIIAALRGAVVGGGLALASAAHLRVMDQSTYFALPEGQRGIFTGGGATIRVSDMIGKYRMIDMILTGRVYQGQEAADLGLAQYITEGSSFDKAMELADKIASNLPLTNFAICSAISHMQNMSGLDAAYAEAFVGGIVNTQPAARERLEAFANKTAARVRPNS
notes: DmdD (methylthioacryloyl-CoA hydratase) of Ruegeria pomeroyi with the E121A mutation (QuikChange); crystals soaked with MTA-CoA or MMPA-CoA; PDB 4IZB is the wild-type parent; source: E. coli, purified following the same protocol as for the wild-type protein; not shown: His6, C-terminal, kept
- stoichiometry N [6]: 6
